Paper PMC5651264

Molecular target: His-tagged FRUCTOKINASE6 (FRK6-His) (Arabidopsis thaliana)

formazan staining of a native PAGE gel (fructokinase enzyme activity staining), 1 μg FRK6-His with 1 μg His-TSF (the His-tagged TSF, not the GST fusion), against FRK6-His alone: 2 fold
Substance: GST-tagged TWIN SISTER OF FT (GST-TSF) (from UniProt Q9S7R5 1-175) (natural protein)
